Changes are numbered by the printed parent chain. Square brackets hold non-standard residues; d marks the D form. * marks the point of attachment. Biotin = O=C1N[C@H]2[C@H](CS[C@H]2CCCCC(=O)*)N1; pS = N[C@@H](COP(=O)(O)O)C(=O)O
T1: Peptide_011 (human)
T1 peptide: PTEDGSEEPGSETSD

T2: Peptide_023 (human)
T2 peptide: TPSLEDEAAGHVTQA

T3: Peptide_035 (human)
T3 peptide: IPAKTPPAPKTPPSS

T4: Peptide_029 (human)
T4 peptide: KAKGADGKTKIATPR

T5: Peptide_047 (human)
T5 peptide: TPPKSPSSAKSRLQT

T6: Peptide_057 (human)
T6 peptide: KLDLSNVQSKCGSKD

T7: Peptide_048 (human)
T7 peptide: PSSAKSRLQTAPVPM

T8: Peptide_061 (human)
T8 peptide: PGGGSVQIVYKPVDL

T9: Peptide_082 (human)
T9 peptide: RHLSNVSSTGSIDMV

T10: Tau 251-270 peptide phosphorylated at both Ser258 and Ser262 (human, N-terminal biotin; C-terminal amide; phosphoserine at 258 and 262 (numbering of SEQ ID NO:1))
T10 construct: also called pSer258 and pSer262 peptide
T10 peptide: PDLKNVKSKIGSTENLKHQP

T11: Tau 346-360 peptide phosphorylated at Ser352 (human, SMILES …)
T11 construct: also called pSer352
T11 peptide: Biotin-FKDRVQ[pS]KIGSLDNI-NH2

T12: Tau 346-360 peptide phosphorylated at Ser356 (human, SMILES …)
T12 construct: also called pSer356
T12 peptide: Biotin-FKDRVQSKIG[pS]LDNI-NH2

T13: Tau 186-205 peptide (17G2.A1 peptide) (human, N-terminal biotin)
T13 peptide: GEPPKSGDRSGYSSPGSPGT

B1: chimeric IgG clone 1A1 (antibody, V domains shown)
VH: EVQLQQSGAELVRPGASVRLSCTASGFNIKDSLMHWLKQRPEQGLEWIGWIDPEDGETKYAPKFQDKATITADTSSNTAYLQLSSLTSEDTAIYYCTRRDWEGPWGQGTLVTVSA
VL: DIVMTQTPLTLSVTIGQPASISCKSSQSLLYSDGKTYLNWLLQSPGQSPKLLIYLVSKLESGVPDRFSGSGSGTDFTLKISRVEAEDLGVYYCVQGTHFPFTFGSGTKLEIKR
notes: mouse-human chimeric IgG from HEK293; also called anti-Tau 1A1; anti-Tau^1A1
B2: chimeric IgG clone 1G7 (antibody, V domains shown)
VH: B1 VH with L11V, R19K, A24T, E89G, T97A
VL: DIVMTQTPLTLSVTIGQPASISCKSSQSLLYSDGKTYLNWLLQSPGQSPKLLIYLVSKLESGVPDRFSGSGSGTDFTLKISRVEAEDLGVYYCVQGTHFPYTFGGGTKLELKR
notes: mouse-human chimeric IgG from HEK293
B3: murine anti-Tau hybridoma antibody 17G2.A1 (antibody, V domains shown)
VH: QVQLQQPGAELVGPGSSVKLSCKASGYTFINYWIDWMKQSPGQGLEWIGNIYPSDSESHYNQKFTDKATLTVDISSSTAYLQLSSLTSEDSAVYYCALYSKGYWGQGTSVTVSS
VL: DVLMTQTPLSLPVTLGDQASISCRSSQNIVHTNGNTYLEWYLQKPGQSPKLLIYKLSSRFSGVPDRFSGSGSGTDFTLKISRVEAEDLGVYYCFQGSHLPFTFGGGTKLEIKR
notes: mouse IgG from hybridoma; also called anti-Tau 17G2.A1
B4: chimeric IgG clone 1A5 (antibody, V domains shown)
VH: EVQLQQSGAELVRPGASVKLSCTASGFNIKDSLIHWVKQRPEQGLEWIGWIDPEDGETKYAPKFQDKATKTADTSSNTAYLQLSSLTSEDTAIYYCASGEWDYWGQGTSVTVSS
VL: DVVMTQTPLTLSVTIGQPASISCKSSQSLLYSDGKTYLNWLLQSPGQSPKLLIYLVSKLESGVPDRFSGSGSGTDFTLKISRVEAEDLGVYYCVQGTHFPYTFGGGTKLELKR
notes: as for B2
B5: chimeric IgG clone 1D10 (antibody, V domains shown)
VH: EVQLQQSGAELVRPGASVKLSCTASGFNIKDSLMHWMKQRPEQGLEWIGWIDPEDGETKYAPKFQDKATLTADTSSNAAYLQLSSLTSEDTAIYYCVRGDWDGGYWGQGTTLTVSS
VL: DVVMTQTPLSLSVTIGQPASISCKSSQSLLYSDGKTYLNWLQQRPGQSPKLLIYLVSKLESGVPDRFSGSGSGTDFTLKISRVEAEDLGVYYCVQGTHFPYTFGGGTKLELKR
notes: as for B2

Biological target: T1, Peptide_011
Test: peptide array
In short: (§1)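 Overlapping 15-mer peptides (5-aa offset) spanning human 2N4R Tau spotted in triplicate on slides; antibodies bound 2 h at room temperature in 3% BSA-TBST (chimeric IgG 5 μg/mL; mouse IgG 30 μg/mL). Detection 1 h with fluorescent anti-human (568 nm) or anti-mouse (647 nm) secondary; fluorescence imaging aligned to array map.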

Row | Binder | binding result
1 | B1 | no binding (tested: 5 ug/mL)
2 | B2 | no binding (tested: 5 ug/mL)
3 | B3 | no binding (tested: 30 ug/mL)
4 | B4 | no binding (tested: 5 ug/mL)
5 | B5 | no binding (tested: 5 ug/mL)

Biological target: T2, Peptide_023
Test: peptide array
In short: as §1

Row | Binder | binding result
6 | B1 | no binding (tested: 5 ug/mL)
7 | B2 | no binding (tested: 5 ug/mL)
8 | B3 | no binding (tested: 30 ug/mL)
9 | B4 | no binding (tested: 5 ug/mL)
10 | B5 | no binding (tested: 5 ug/mL)

Biological target: T3, Peptide_035
Test: peptide array
In short: as §1

Row | Binder | binding result
11 | B1 | no binding (tested: 5 ug/mL)
12 | B2 | no binding (tested: 5 ug/mL)
13 | B3 | no binding (tested: 30 ug/mL)
14 | B4 | no binding (tested: 5 ug/mL)
15 | B5 | no binding (tested: 5 ug/mL)

Biological target: T4, Peptide_029
Test: peptide array
In short: as §1

Row | Binder | binding result
16 | B1 | no binding (tested: 5 ug/mL)
17 | B2 | no binding (tested: 5 ug/mL)
18 | B3 | no binding (tested: 30 ug/mL)
19 | B4 | no binding (tested: 5 ug/mL)
20 | B5 | no binding (tested: 5 ug/mL)

Biological target: T5, Peptide_047
Test: peptide array
In short: as §1

Row | Binder | binding result
21 | B1 | no binding (tested: 5 ug/mL)
22 | B2 | no binding (tested: 5 ug/mL)
23 | B3 | no binding (tested: 30 ug/mL)
24 | B4 | no binding (tested: 5 ug/mL)
25 | B5 | no binding (tested: 5 ug/mL)

Biological target: T6, Peptide_057
Test: peptide array
In short: as §1

Row | Binder | binding result
26 | B1 | no binding (tested: 5 ug/mL)
27 | B2 | no binding (tested: 5 ug/mL)
28 | B3 | no binding (tested: 30 ug/mL)
29 | B4 | no binding (tested: 5 ug/mL)
30 | B5 | no binding (tested: 5 ug/mL)

Biological target: T7, Peptide_048
Test: peptide array
In short: as §1

Row | Binder | binding result
31 | B1 | no binding (tested: 5 ug/mL)
32 | B2 | no binding (tested: 5 ug/mL)
33 | B3 | no binding (tested: 30 ug/mL)
34 | B4 | no binding (tested: 5 ug/mL)
35 | B5 | no binding (tested: 5 ug/mL)

Biological target: T8, Peptide_061
Test: peptide array
In short: as §1

Row | Binder | binding result
36 | B1 | no binding (tested: 5 ug/mL)
37 | B2 | no binding (tested: 5 ug/mL)
38 | B3 | no binding (tested: 30 ug/mL)
39 | B4 | no binding (tested: 5 ug/mL)
40 | B5 | no binding (tested: 5 ug/mL)

Biological target: T9, Peptide_082
Test: peptide array
In short: as §1

Row | Binder | binding result
41 | B1 | no binding (tested: 5 ug/mL)
42 | B2 | no binding (tested: 5 ug/mL)
43 | B3 | no binding (tested: 30 ug/mL)
44 | B4 | no binding (tested: 5 ug/mL)
45 | B5 | no binding (tested: 5 ug/mL)

Biological target: T10, Tau 251-270 peptide phosphorylated at …
Test: ELISA on biotinylated peptide
Method: (§2) Peptides corresponding to original binding sites on the microarray were synthesized and included all permutations of phospho-serine epitopes. Peptides were synthesized with a biotinylated N-terminus and C-terminal amide. Peptides were purified and confirmed by mass spectrometry. Peptides were then bound to streptavidin-coated plates in half serial dilutions from 250 ng/well of each peptide. Antibody binding was tested at 1 μg/mL in 5% BSA TBST, followed by washing and detection with goat anti-human HRP (as described above in the “Chimeric IgG ELISA” section).

Row | Binder | binding result
46 | B1 | binds

Biological target: T11, Tau 346-360 peptide phosphorylated at …
Test: ELISA on biotinylated peptide
Method: as §2

Row | Binder | binding result
47 | B1 | binds
48 | B2 | binds

Biological target: T12, Tau 346-360 peptide phosphorylated at …
Test: ELISA on biotinylated peptide
Method: as §2

Row | Binder | binding result
49 | B1 | binds

Biological target: T13, Tau 186-205 peptide (17G2.A1 peptide)
Test: direct ELISA on biotinylated peptide
Method: The peptides were diluted in 3% BSA/TBST in 0.5 log dilutions starting at 1 μg/mL and bound to neutravidin coated plates. Plates were washed 5× with TBST between all steps. 17G2.A1 was diluted to 5 μg/mL in 3% BSA/TBST and incubated for 1 hour at room temperature, followed by incubation with anti-mouse IgG-HRP (Novex) diluted 1/5000 in BSA/TBST for 45 minutes at room temperature. ELISAs were developed with 50 μL of 1-step TMB Ultra.

Row | Binder | binding result
50 | B3 | binds

Biological target: T14, full-length human Tau (Tau441; 2N4R), recombinant (human, UniProt P10636 1-758)
T14 construct: made in E. coli, His6-Smt3 tag removed; biotinylated through amines for Octet and phage work; also called r-Tau; recombinant Tau
T14 sequence (P10636 other isoform, or with tags, fused parts or gaps limits assumed): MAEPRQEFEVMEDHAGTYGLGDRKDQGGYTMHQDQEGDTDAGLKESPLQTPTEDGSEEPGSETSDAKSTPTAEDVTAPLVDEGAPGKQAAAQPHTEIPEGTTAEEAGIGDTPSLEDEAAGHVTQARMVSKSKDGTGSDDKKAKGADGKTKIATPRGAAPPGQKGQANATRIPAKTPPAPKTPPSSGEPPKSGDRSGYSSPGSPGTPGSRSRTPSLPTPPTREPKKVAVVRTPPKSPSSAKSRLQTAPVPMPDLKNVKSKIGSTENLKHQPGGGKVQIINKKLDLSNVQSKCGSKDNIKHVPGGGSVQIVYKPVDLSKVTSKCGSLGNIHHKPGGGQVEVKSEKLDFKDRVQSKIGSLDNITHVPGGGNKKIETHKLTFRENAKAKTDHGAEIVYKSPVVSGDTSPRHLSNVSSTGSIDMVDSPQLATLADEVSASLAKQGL
Test: SPR Biacore, antibody captured, r-Tau injected
Method: The affinity of each hybridoma antibody for r-Tau was determined by surface plasmon resonance using a Biacore™ T200 instrument. Biacore™ Series S CM5 sensor chips were immobilized with polyclonal rabbit anti-mouse IgG (Fc) antibody (mouse antibody capture kit from GE Healthcare). 1 μg/mL of antibody was captured for 1 minute on each flow cell and serial 3-fold dilutions of r-Tau were injected at a flow rate of […]. Each sample was analyzed with a 3-minute association and a 10-minute dissociation. After each injection, the chip was regenerated using 10 mM Glycine-HCl (pH 1.7). Binding response was corrected by subtracting the RU from a flow cell capturing an irrelevant IgG at similar density. A 1:1 Languir model of simultaneous fitting of kₒₙ and koff was used for kinetics analysis.

Row | Binder | Kd | koff | kon
51 | B3 | 2.48 nM | 0.000383 s⁻¹ | 155000 M⁻¹ s⁻¹

— patent publication US20200216522A1 (DENALI THERAPEUTICS, published 2020)
